# According to patent US20120039878A1 (ELAN PHARMACEUTICALS, published 2012):
# Where a chain is given by its changes, count along the chain named.
# T1: peptide 66, CGGHEAT
# T1 peptide: CGGHEAT
# T2: peptide 68, CGGHEDTM
# T2 peptide: CGGHEDTM
# T3: peptide 69, CGGHEDTMA
# T3 peptide: CGGHEDTMA
# T4: peptide 70, CGGHEDTMAD
# T4 peptide: CGGHEDTMAD
# T5: murine AA amyloid (AA fibrils; amyloid enhancing factor extract, AEF) (mouse)
# T5 construct: also called Mouse AA (AEF); murine AA AEF
# T5 sequence (P05366 whole entry, looked up): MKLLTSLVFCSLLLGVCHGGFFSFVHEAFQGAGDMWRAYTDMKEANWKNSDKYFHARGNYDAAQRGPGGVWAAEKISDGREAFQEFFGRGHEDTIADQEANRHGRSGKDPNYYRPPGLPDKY
# T6: human AA amyloid (human renal AA amyloid extract; AA deposits in human tissue) (human)
# T6 construct: also called human AA amyloid extract; human AA amyloid fibrils
# T6 sequence (P0DJI8 19-94, looked up): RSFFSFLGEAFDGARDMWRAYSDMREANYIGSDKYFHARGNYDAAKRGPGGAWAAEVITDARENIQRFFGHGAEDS
# T7: peptide 65, CGGHADT
# T7 peptide: CGGHADT
# T8: peptide 71, CGGHED
# T8 peptide: CGGHED
# B1: murine monoclonal antibody 2A4 (ATCC Accession Number PTA-9662) (antibody, V domains shown)
# VH: EVQLVESGGRLVQPKGSLKLSCAASGFTFNTYAMYWIRQAPGKGLEWVARIRSKSNNYAIYYADSVKDRFTIFRDDSQSMLYLQMNNLKTEDTAMYYCVRPYSDSFAYWGQGTLVTVSA
# VL: DVVMTQTPLSLPVSLGDQASISCRSSQSLVHSTGNTYLHWYLQKPGQSPKLLIYKVSNRFSGVPDRFSGSGSGTYFTLKISRVEAEDLGVYFCSQSTHVPFTFGGGTKLEIK
# notes: Murine IgG2b kappa; Used as hybridoma culture supernatant or as protein A-purified mAb; also called mAb 2A4; 2A4.20.44.77
# B2: murine monoclonal antibody 8G9 (antibody, mouse IgG2b, V domains shown)
# VH: B1 VH
# VL: B1 VL
# notes: Murine IgG2b kappa; also called mAb 8G9; 8G9.3.4.51.22
# B3: murine monoclonal antibody 7D8 (ATCC Accession Number PTA-9468) (antibody, mouse IgG2b, V domains shown)
# VH: B1 VH
# VL: B1 VL with Q27L
# notes: Murine IgG2b kappa; also called mAb 7D8; 7D8.29.19.47
# B4: peptide 41, GHEDTIADQE (peptide)
# peptide: GHEDTIADQE
# notes: also called p41; p#41
# Tests used:
# peptide 66, CGGHEAT = molecular target: T1, peptide 66, CGGHEAT; experiment: BIAcore, antibody binding to peptides
# peptide 68, CGGHEDTM = molecular target: T2, peptide 68, CGGHEDTM; experiment: BIAcore, antibody binding to peptides
# peptide 69, CGGHEDTMA = molecular target: T3, peptide 69, CGGHEDTMA; experiment: BIAcore, antibody binding to peptides
# peptide 70, CGGHEDTMAD = molecular target: T4, peptide 70, CGGHEDTMAD; experiment: BIAcore, antibody binding to peptides
# [1] = molecular target: T5, murine AA amyloid (AA fibrils; amyloid …); experiment: ELISA, purified mAb on mouse AA amyloid extract (AEF)
# Description: (§1) Protein Mr markers (Std) are, form top to bottom: 176, 119, 75, 49, 39, 25 and 19 kDa. The interaction of the purified mAbs with immunizing peptide p#39, control peptide (p#41), murine and human AA extracts were determined by ELISA as described above.
# (§2) In contrast, even at the highest concentration of mAb used (100 nM) there was little detectable binding to the p#41 peptide (FIG. 33—Each point represents the mean±SE, (n=3 at each concentration)). […] The calculated EC50 values for the mAbs binding to mouse AA extract were essentially identical to those obtained when the p#39 peptide was used as the substrate (FIG. 34; Table 5). […] Because the EC50 value for 7D8 mAb binding was the lowest of the 3 antibodies tested, Applicants selected this reagent for in vivo co-localization and imaging studies. The 2 amino acid substitutions in the human SAA sequence with respect to the murine protein affected the EC50 values.
# [2] = molecular target: T6, human AA amyloid (human renal AA …); experiment: ELISA, purified mAb on plate-dried human AA amyloid extract
# Description: as §1, §2
# [3] = molecular target: T9, synthetic Vλ6 Wil fibrils; experiment: SPR (BIAcore), mAb at 6.6 nM over immobilized synthetic Vλ6 Wil fibrils
# T9 construct: Fibrillar (aggregated) form, sonicated and amine-coupled to a CM-5 chip (about 16,000 RU); also called immobilized Vλ6 Wil fibrils
# Description: Surface plasmon resonance was used to establish the binding kinetics of several monoclonal antibodies with Vλ6 Wil fibrils and monomer. […] The deflection (expressed in RU) during the binding phase was similar for mAbs 7D8 and 2A4 but was 50% lower for 8G9.
# (§3) Sensograms were run in HBS-EP buffer from BIAcore at 20 μL/min in the Fc1 (Vλ6 Wil fibrils) minus Fc-2 (control) mode. Samples containing mAb or mAb plus peptide inhibitors were injected (70 μL) and the sensograms collected using the delayed-wash function for 200 sec. Data were analyzed in the BIAevalutation software, using the 1:1 Langmuir model with mass-action correction.
# [4] = molecular target: T5, murine AA amyloid (AA fibrils; amyloid …); experiment: ELISA, hybridoma culture supernatant on murine AA AEF; not corrected for mAb concentration
# Text: The interaction of 2A4, 8G9 and 7D8 mAbs with AA amyloid was initially tested by ELISA and the data, given in FIG. 31, analyzed using SigmaPlot (SPSS Inc.). Each point represents the mean±SE (n=3). A culture supernatant from an irrelevant hybridoma was used as a control (Ctrl Culture Sup). […] (In addition, the immunohistochemical reactivity of the day 1 material was greater than the day 2 samples). […] Because of the low signal and high variability found with the culture supernatants and to determine more accurately the relative binding affinity of the mAbs for murine and human AA amyloid fibrils (as well as to provide material for in vivo biodistribution studies) it was necessary to isolate the mAbs by protein A affinity chromatography. The purity of the isolated mAbs was established SDS-PAGE using 10% acrylamide gels under reducing and non-reducing conditions (FIG. 32). Samples in lanes 1-4 treated with mercaptoethanol, lanes 5-9 without. Gel was stained with Coomassie blue: mAb 8G9, lanes 1 and 6; mAb 2A4, lanes 2 and 7; mAb 7D8, lanes 3 and 8; SP2/0 control supernatant, lanes 4 and 9; blank, lane 5. Protein Mr markers (Std) are, form top to bottom: 176, 119, 75, 49, 39, 25 and 19 kDa. The interaction of the purified mAbs with immunizing peptide p#39, control peptide (p#41), murine and human AA extracts were determined by ELISA as described above.
# peptide 65, CGGHADT = molecular target: T7, peptide 65, CGGHADT; experiment: BIAcore, antibody binding to peptides
# peptide 71, CGGHED = molecular target: T8, peptide 71, CGGHED; experiment: BIAcore, antibody binding to peptides
# [5] = molecular target: B3; experiment: BIAcore competition: peptide p41 in solution with mAb 7D8 (6.6 nM) injected over immobilized Vλ6 Wil fibrils
# Description: FIG. 28: Binding kinetics of mAb 7D8 to synthetic Vλ6 Wil fibrils in the presence of the p39 and p41 peptides. The interaction of the mAb 7D8 at 6.6 nM with immobilized Vλ6 Will fibrils was measured by BIAcore in the presence of peptides p39 and p41 at 1 or 20 μg/mL.
# To assess the specificity of the reaction and ensure that the binding of the mAbs with the fibrils occurred via the classic F(ab)-antigen interaction (as opposed to Fc-mediated binding or non-specific adsorption), binding data were acquired in the presence of the immunogen peptide (p39) at 20 and 1 μg/mL (FIG. 8). […] In the presence of 20 μg/mL p41 peptide, the binding kinetics for mAb 7D8 with Vλ6 Wil fibrils were identical to 7D8 alone.
# as §3
"binding result (peptide 66, CGGHEAT)","binding result (peptide 68, CGGHEDTM)","binding result (peptide 69, CGGHEDTMA)","binding result (peptide 70, CGGHEDTMAD)",EC50 [1] [nM],EC50 [2] [nM],Kd [3] [nM],supernatant dilution after which reactivity is absent [4],"binding result (peptide 65, CGGHADT)","binding result (peptide 71, CGGHED)",binding result [5],Binder
no binding,no binding,no binding,no binding,4.09,26.4,~1,~64 fold dilution (1:x),–,–,–,B1
–,–,–,–,5.64,31.7,~1,~64 fold dilution (1:x),–,–,–,B2
no binding,no binding,no binding,no binding,1.84,13.3,~1,~64 fold dilution (1:x),no binding,no binding,–,B3
–,–,–,–,–,–,–,–,–,–,no binding (tested: 20 µg/mL),B4
